We go through seven molecules from patent US20260258115A1 (MAPP BIOPHARMACEUTICAL, published 2026).

Common to all, as to experiment: BLI, IgG
(BLI is a label-free optical method that tracks binding on a fibre tip over time.)

The target of assay [1] is T1, RSV prefusion F (preF), subtype B (respiratory syncytial virus subtype B).
T1 construct: also called Prefusion subtype B

Assay [2] concerns the target T2, RSV postfusion F (postF), subtype A (respiratory syncytial virus subtype A, UniProt P03420 26-513).
T2 construct: also called Postfusion subtype A; F deltaFP

In assay [3] the target is T3, RSV postfusion F (postF), subtype B (respiratory syncytial virus subtype B).
T3 construct: also called Postfusion subtype B

In general, Kd refers to the equilibrium constant for the complex coming apart. A higher Kd goes with a looser complex.

B1: ADI-25497 (antibody, V domains shown)
VH: EVQLLESGGGLVQPGGSLRLSCAASGFTFSSYWMSWVRQAPGKGLEWVANIKQDGSEKYYVDSVKGRFTISRDNAKNSLYLQMNSLRAEDTAVYYCARDGLLQYDFWSGYYDYWGQGTLVTVSS
VL: EIVLTQSPSSLSASVGDRVTITCRASQGISSWLAWYQQKPEKAPKSLIYAASSLQSGVPSRFSGSGSGTDFTLTISSLQPEDFATYYCQQYNSYPFTFGPGTKVDIK
notes: full-length IgG
As to B1, the Kd came out at 14.1 nM in assay [1], 18.4 nM in assay [2] and 14.8 nM in assay [3].

B2: ADI-14361 (antibody, V domains shown)
VH: EVQLLESGGGFVQPGGSLRLSCAASGFTFSSYAVNWVRQAPGKGLEWVSLISGSGRTDYTDSVKGRFTISRDNAKNTLFLQMNSLRVEDTAVYYCAKSWGSSGYGYLDYWGQGTLVTVSS
VL: QSGLTQPPSVSGAPGQRVTISCTGSSSNIGPGTDVHWYQHFPGTAPKLLIFGNSNRPSGVPDRFSGSKSGTSASLAITGLQAEDEAYYYCQSYDRTLSASVFGGGTKLTVL
notes: full-length IgG; also called Ab 29
In the case of B2, the Kd in assay [1] came out at 52.8 nM; in assay [2], 0.437 nM; in assay [3], 0.293 nM.

B3: ADI-14358 (antibody, V domains shown)
VH: QVQLVQSGGGLVKPGGSLRLSCVASGFTFSDYYMTWIRQAPGKGLEWVSYISGSSAYTIYADSVKGRFTISRDNAKNSLYLQMNGLRAEDTAVYYCARVSWVRSLDSWGQGTLVTVSS
VL: QSALTQPASVSGSPGQSITISCTGSTSDVGLYNYVSWYQLHPGKAPKLIIYDVRHRPSGVSDRFSASKSGNTASLTISGLQAEDEADYYCCSYTSSSTYVFGSGTQLTVL
notes: full-length IgG; also called Ab 26
Consider B3, for which the dissociation constant (Kd) is 60.3 nM in assay [1], 0.656 nM in assay [2] and 27.5 nM in assay [3].

B4: ADI-14375 (antibody, V domains shown)
VH: EVQLVESGGGLVQPGGSLRLSCAVSGFTFSNYAVSWVRQAPGKGLEWVSGISGSGGTTYYVDSVKGRFTVSRDNSKNTLFLQLNSLKAEDTAVYYCAKDWGYSGGRPYFDYWGQGTLVTVSS
VL: QSVLTQPPSVSGAPGQRVTISCTASSSNIGPIYDVHWYQQLPGTGPKLLIYGNNNRPSGVPDRFSGSKSGTSASLAITGLQAEDEADYYCQSYDTSLSVVFGGGTKLTVL
notes: full-length IgG; also called Ab 43
Turning to B4, the results for the Kd in assay [1], in assay [2] and in assay [3] were 3.21 nM, 0.477 nM and 3.31 nM, respectively.

B5: ADI-14383 (antibody, V domains shown)
VH: QITLKESGPTLVKPTQTLTLTCTFSGFSLSTSGVGVGWIRQPPGKALEWLALIYWDEDKRYSPSLKTRLTITKDTSRNQVKLTMTNMDPVDTATYYCAHQYYDILTGYPSPGAFDIWGQGTTVTVSS
VL: QPVLTQPASVSGSPGQSITISCTGTSSDVVSYNLVSWFQQHPGKAPKLMIYEVTRRPSGVSNRFSGSKSGNTASLTISGLQAEDEADYYCCAYTGTPVVFGGGTKLTVL
notes: full-length IgG; also called Ab 51
With B5, the values for the dissociation constant Kd in assay [1], in assay [2] and in assay [3] were 1.75 nM, 0.434 nM and 0.251 nM, respectively.

B6: ADI-14360 (antibody, V domains shown)
VH: QVQLVQSGAEVKKPGASVKVSCKASGYTFTTYSMHWVRQAPGQRLEWMGWINAGNGNTKYSQKFQGRVTITRDTSASTAYMELSSLRSEDTAVYYCARDGVGGAYYYGEMDVWGQGTTVTVSS
VL: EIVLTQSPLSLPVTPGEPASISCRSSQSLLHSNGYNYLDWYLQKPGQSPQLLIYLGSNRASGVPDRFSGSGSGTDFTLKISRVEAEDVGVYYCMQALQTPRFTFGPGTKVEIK
notes: full-length IgG; also called Ab 28
For the molecule B6, the dissociation constant Kd in assay [1] amounted to 26.8 nM; in assay [2], 5.88 nM; in assay [3], 9.03 nM.

B7: ADI-14371 (antibody, V domains shown)
VH: EVQLVESGGGLVQPGGSLRLSCAASGFTFSNYAMTWVRQAPGKGLEWLSSISGSGGSTYYADSVKGRFTISRDNSRNTLYVQMNSLRVEDTAFYYCAKAFYEYGAGSPGDYWGQGTLVTVSS
VL: DIQLTQSPSSLSASVGDRVTITCRASQSIGTNLNWYQQKPGKAPKFLIYAASSLQRGVPSRFSGSGSGSEFTLTISSLQPEDFATYYCQQSYSTLPITFGQGTKLEIK
notes: full-length IgG; also called Ab 39
For B7, the Kd in assay [1] came out at 8.43 nM; in assay [2] it was 1.23 nM; in assay [3], 1.07 nM.
